Literature values, collected in patent US20150174267A1, “COMPOSITIONS AND METHODS FOR THE TRANSPORT OF THERAPEUTIC AGENTS” (Angiochem Inc., priority 2009, published 2015).
Where no end group is shown, it is not given here.

Experiments:
[1] = for efficient transport across the BBB: efficiently = at least as efficiently as Angiopep-6
[2] = tested on: liver, lung, kidney, spleen, and muscle cells

Compound	efficient transport across the BBB [1]	further results
COc1cc([C@@H]2c3cc4c(cc3[C@@H](O[C@@H]3O[C@@H]5CO[C@@H](C)O[C@H]5[C@H](O)[C@H]3O)[C@H]3COC(=O)[C@H]23)OCO4)cc(OC)c1OP(=O)(O)O [Etoposide phosphate, etoposide phosphate]	–	water solubility compared to etoposide: improved water solubility
Angiopep-1: targeting polypeptide of Table 1, SEQ ID NO:67 (TFFYGGCRGKRNNFKTEEY; not fully specified (C-terminus))	cross the mammalian BBB efficiently	–
Angiopep-2: targeting polypeptide of Table 1, SEQ ID NO:97	cross the mammalian BBB efficiently	–
Angiopep-4a: targeting polypeptide of Table 1, SEQ ID NO:108 (RFFYGGSRGKRNNFKTEEY)	cross the mammalian BBB efficiently	–
Angiopep-4b: targeting polypeptide of Table 1, SEQ ID NO:109 (RFFYGGSRGKRNNFKTEEY; not fully specified (N-terminus))	cross the mammalian BBB efficiently	–
Angiopep-5: targeting polypeptide of Table 1, SEQ ID NO:110 (RFFYGGSRGKRNNFRTEEY; not fully specified (N-terminus))	cross the mammalian BBB efficiently	–
Angiopep-6: targeting polypeptide of Table 1, SEQ ID NO:111 (TFFYGGSRGKRNNFRTEEY)	cross the mammalian BBB efficiently	transport across the BBB relative to that of Angiopep-1 ([1]; relative to Angiopep-1 (250 nM), in situ brain perfusion assay of US 2009/0016959): 38.5%
Angiopep-7: targeting polypeptide of Table 1, SEQ ID NO:112 (TFFYGGSRGRRNNFRTEEY)	does not cross the BBB efficiently	efficient transport into particular cell types [2]: efficiently transported into liver, lung, kidney, spleen, and muscle cells
